T1: HCoV-229E spike antigens (bead panel) (HCoV-229E, UniProt P15423 16-1115)
T1 sequence: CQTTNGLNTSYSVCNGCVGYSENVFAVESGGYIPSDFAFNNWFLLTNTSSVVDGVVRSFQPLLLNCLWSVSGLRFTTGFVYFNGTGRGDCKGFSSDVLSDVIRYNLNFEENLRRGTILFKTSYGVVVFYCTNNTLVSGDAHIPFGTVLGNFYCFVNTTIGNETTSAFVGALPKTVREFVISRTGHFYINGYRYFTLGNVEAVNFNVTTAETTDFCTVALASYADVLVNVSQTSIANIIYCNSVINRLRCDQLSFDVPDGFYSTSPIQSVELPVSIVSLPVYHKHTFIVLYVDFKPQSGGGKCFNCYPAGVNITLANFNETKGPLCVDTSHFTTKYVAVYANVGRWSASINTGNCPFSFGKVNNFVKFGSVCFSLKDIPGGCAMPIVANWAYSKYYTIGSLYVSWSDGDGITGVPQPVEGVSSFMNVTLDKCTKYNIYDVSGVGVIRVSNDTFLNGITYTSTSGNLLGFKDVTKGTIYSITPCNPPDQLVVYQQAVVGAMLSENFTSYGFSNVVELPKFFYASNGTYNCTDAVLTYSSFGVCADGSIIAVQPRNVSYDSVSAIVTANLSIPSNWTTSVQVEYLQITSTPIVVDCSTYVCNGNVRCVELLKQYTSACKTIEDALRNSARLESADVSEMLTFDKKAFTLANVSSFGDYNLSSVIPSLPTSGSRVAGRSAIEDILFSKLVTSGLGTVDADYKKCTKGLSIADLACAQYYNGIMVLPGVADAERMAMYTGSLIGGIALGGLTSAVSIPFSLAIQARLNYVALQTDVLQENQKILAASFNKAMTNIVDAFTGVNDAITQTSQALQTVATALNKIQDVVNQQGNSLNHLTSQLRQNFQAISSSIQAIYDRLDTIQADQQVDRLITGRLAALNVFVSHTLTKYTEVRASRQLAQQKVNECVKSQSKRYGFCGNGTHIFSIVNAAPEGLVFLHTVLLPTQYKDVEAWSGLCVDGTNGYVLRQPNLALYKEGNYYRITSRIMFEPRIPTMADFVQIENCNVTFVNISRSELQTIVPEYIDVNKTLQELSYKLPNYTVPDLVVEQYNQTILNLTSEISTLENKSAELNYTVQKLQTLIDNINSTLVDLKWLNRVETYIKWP

T2: HCoV-OC43 spike antigens (bead panel) (HCoV-OC43, UniProt P36334 14-1297)
T2 sequence: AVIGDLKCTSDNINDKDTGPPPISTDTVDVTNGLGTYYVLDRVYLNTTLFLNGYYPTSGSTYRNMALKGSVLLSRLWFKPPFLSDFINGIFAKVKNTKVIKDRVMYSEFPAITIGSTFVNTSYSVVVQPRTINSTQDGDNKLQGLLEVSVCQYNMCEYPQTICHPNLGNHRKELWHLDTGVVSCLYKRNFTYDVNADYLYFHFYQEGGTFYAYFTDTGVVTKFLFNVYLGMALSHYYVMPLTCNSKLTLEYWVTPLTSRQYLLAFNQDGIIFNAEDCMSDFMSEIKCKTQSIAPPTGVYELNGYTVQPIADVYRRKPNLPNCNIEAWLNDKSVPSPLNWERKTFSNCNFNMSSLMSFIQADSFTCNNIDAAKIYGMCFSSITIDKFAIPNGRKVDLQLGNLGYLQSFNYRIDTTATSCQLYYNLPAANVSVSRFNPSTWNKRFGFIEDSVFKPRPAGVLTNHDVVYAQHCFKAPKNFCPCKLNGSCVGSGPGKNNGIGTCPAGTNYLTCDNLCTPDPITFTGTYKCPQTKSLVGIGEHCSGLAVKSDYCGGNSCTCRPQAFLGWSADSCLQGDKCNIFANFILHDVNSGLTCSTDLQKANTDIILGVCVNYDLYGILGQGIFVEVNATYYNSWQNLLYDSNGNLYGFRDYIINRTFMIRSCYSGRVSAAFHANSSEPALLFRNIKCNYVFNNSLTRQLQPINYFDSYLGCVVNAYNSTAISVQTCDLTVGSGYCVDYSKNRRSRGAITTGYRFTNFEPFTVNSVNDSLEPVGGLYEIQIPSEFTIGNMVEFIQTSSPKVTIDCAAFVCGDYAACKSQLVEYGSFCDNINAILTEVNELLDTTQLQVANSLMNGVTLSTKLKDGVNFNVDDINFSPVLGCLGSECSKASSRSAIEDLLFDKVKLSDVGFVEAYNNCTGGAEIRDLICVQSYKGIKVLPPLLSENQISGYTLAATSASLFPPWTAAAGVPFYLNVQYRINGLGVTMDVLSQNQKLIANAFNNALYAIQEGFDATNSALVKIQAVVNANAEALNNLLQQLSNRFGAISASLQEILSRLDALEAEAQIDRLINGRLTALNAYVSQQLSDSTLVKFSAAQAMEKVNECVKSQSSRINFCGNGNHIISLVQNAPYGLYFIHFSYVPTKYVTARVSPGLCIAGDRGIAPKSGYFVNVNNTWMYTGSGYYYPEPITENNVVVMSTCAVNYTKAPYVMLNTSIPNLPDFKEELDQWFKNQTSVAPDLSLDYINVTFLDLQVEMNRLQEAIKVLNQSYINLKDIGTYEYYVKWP

B1: COV_2100 (antibody, V domains shown)
VH: EVQLVESGGGLVQPGGSLRLSCAASGFTFSSYDMYWVRQATGKGLEWVSAIGTAGDTYYPGSVKGRFTISRENAKNSLYLRMNSLRAGDTAVYFCARADKNTAMFFDYWGQGTLVTVSS
VL: DIQMTQSPSSLSASVGDRVTITCRASQNINNFLHWYQQKPGNAPKLLIYAASTLQSGVPSRFSGSGSGTDFTLTISSLQPEDFATYYCQQSYSTPGGTFGGGTKVEIK
notes: human IgG1
B2: COV_2103 (antibody, V domains shown)
VH: EVQLVESGGGVVQPGRSLRLSCGASGFTFSSYGIHWVRQAPGKGLDWVAVIWHDGSQKYYGDSVKGRFTISRDNSKNTLYLQMNRLRAEDTAVYYCARDSGDDYDSSGYPIGNAFDLWGQGTMVTVSS
VL: DIQMTQSPSTLSASVGDRVTITCRASQFINSWLAWYQQKPGKAPKLLIYKASSLETGVPSRFSGSGSGTEFTLTISSLQPDDFATYYCQQYNTYSFTFGPGTKVDIK
notes: human IgG1
B3: COV_2134 (antibody, V domains shown)
VH: EVQLVESGGGVVQPGRSLRLSCAASGFIFSSYGMYWVRQAPGKGLEWVAVIWYDGSNKYYADSVKGRFTISRDNSKNTLYLQMNSLRAEDTAVYYCARDLSSSSGWDDYYYYYGMDVWGQGTTVTVSS
VL: not shown
notes: human IgG1
B4: COV_2193 (antibody, V domains shown)
VH: QVQLVQSGAEVKKPGASVKVSCKVSGYTLTDLSMHWVRQTPGKGLEWMGGFDAEDGETIYAQNFQGRVTMTEDTSIDVAYMELSSLRSEDTAVYYCATGSVGPDYWGQGTLVTVSS
VL: SSELTQDPAVSVALGQTVRITCQGDSLRSYYASWFQQKPGQAPVLVIYLKNDRPSGIPDRFSGSSSGNTASLTITGAQAEDEADYYCNSRDSSGNHQVFGGGTKLTVL
notes: human IgG1
B5: COV_2196 (antibody, V domains shown)
VH: QVQLVQSGAEVKKPGASVKVSCKVSGYTLIELSMHWVRQAPGKGLEWMGGFDPEDAKTIYAQKFQGRVTMTEDTSTDTAYMELSSLTFEDTAVYYCATTPAFMAAAGDFDYWGQGTLVTVSS
VL: QPVLTQPSSVSVSPGQTATITCSGDVLAKKYARWFQQKPGQAPMLVIYKDTERPSGIPERFSGSSSGTTVTLTINGAQVEDEADYYCYSAAAWVFGGGTKLTVL
notes: human IgG1
B6: COV_3088 (antibody, V domains shown)
VH: EVQLVESGGGLVQPGGSLRLSCAASGFTFSSYDMHWVRQATGKGLEWVSAIGTAGDTYYPGSVKGRFTISRENAKNSLYLQMNSLRAGDTAVYYCARGSGWPPFFDYWGQGTLVTVSS
VL: SYELTQPPSVSVAPGKTARITCGGNNIGSKSVHWYQQKPGQAPVLVIYYDSDRPSGIPERFSGSNSGNTATLTISRVEAGDEADYYCQVWDSSSDHHWVFGGGTKLTVL
notes: human IgG1
B7: COV_1050 (antibody, V domains shown)
VH: QVQLVESGGGVVQPGRSLRLSCAASRFTFSSYAMHWVRQAPGKGLEWVAVISFDGSNKYYADSVKGRFTIFRDNSKNTLSLQMNSLRTEDTAMYYCASPAGYYESLWGQGTLVTVSS
VL: SYELTQPPSVSVSPGQTARVTCSGDALSKQYGFWYQQKPGQAPTLVIYKDTERPSGIPERFSGSGSGTTVTLTISGVQAEDEADYYCQSTDNSGRWVFGGGTKLTVLG
notes: human IgG1
B8: COV_2137 (antibody, V domains shown)
VH: EVQLVESGGGLVKPGGSLRLSCAASGFTFSSYTMNWVRQAPGKGLEWVSSISSGSSFIYYADSLRGRFTISRDNAKNSLYLQMNSLRAEDTAVYYCARAPEPQSVIYAYWYFDLWGRGTLVTVSS
VL: QSALTQPASVSGSPGQSITFSCTGTSSDVGSYNLVSWYQQYPGKAPKLMIYEVNKRPSGVSNRFSGSKSGNTASLTISGLQAEDEADYYCCSYAGSSTFYVFGTGTKVTVLG
notes: human IgG1
B9: COV_3053 (antibody, V domains shown)
VH: EVQLVESGGGLVQPGRSLRLSCTASGFTLGDYAMTWVRQAPGKGLEWLGIIRNKRYGETKQYAASVKGRFTFSRDDSKGIGYLQRLSLKIEDTGVYYCTREHIVRDDAFDVWGQGTTVTVSS
VL: DIVMTQSPDSLAVSLGERATINCKSSQSVLYSSNNKNYIAWYQQRPGQPPKLLIYWTSTRASGVPDRFSGSGSGTDFALTISSLQAEDVAVYYCQQYYTIPRTFGQGTKVEIK
notes: human IgG1
B10: COV_1025 (antibody, V domains shown)
VH: QVQLVESGGGVVQPGRSLRLSCAASGFTFNTYAMHWVRQAPGKGLEWVAIISYDGGNKYYADSMKGRFTISRDNSKNTLYLQMNSLRAEDTAVYYCARARTGNYYYGMDVWGQGTTVTVSS
VL: not shown
notes: human IgG1
B11: COV_1118 (antibody, V domains shown)
VH: EVQLVESGGGLVKPGGSLRLSCAASGFSFSNYNMNWVRQAPGKGLEWVSYISSSSSYIYYADSVKGRFTISRDNAKNSLYLQMNSLRGEDTAVYSCAREASGAYYFDRSGYFDYWGQGTLVTVSP
VL: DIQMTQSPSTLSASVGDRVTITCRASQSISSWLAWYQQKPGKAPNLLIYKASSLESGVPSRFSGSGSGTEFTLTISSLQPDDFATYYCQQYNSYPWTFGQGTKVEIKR
notes: human IgG1
B12: COV_1136 (antibody, V domains shown)
VH: EVQLVESGGGLVKPGGSLRLSCAASGFTFSDCNMNWVRQAPGKGLEWVSSISSRSSYIYYADSVKGRFTISRDNAKNSLYLQMNSLRAEDTAVYSCAREASGAYYFDRSGYFDYWGQGTLVTVSP
VL: DIQMTQSPSTLSASVGDRVTITCRASQSISSWLAWYQQKPGKAPNLLIYKASSLESGVPSRFSGSGSGTEFTLTISSLQPDDFATYYCQQYNTYPWTFGQGTKVEIKR
notes: human IgG1
B13: COV_1154 (antibody, V domains shown)
VH: EVQLVESGGGLVKPGGSLRLSCAASGFRFSDYNMNWVRQAPGKGLEWVSYISSSSSYIYYADSVKGRFTISRDNAKNSLYLQMNSLRGEDTAVYSCAREASGAYYFDRSGYFDYWGQGTLVTVSP
VL: DIQMTQSPSTLSASVGDRVTITCRASQSISSWLAWYQQKPGKAPNLLIYKASSLESGVPSRFSGSGSGTEFTLTISSLQPYDFATYYCQQYNSYPWAFGQGTKVEMKR
notes: human IgG1

Key:
[1] = target: T1, HCoV-229E spike antigens (bead panel); assay: multiplex bead assay
[2] = target: T2, HCoV-OC43 spike antigens (bead panel); assay: multiplex bead assay

Binder | binding result [1] | binding result [2]
B1 | no binding | no binding
B2 | no binding | no binding
B3 | no binding | no binding
B4 | no binding | no binding
B5 | no binding | no binding
B6 | no binding | no binding
B7 | no binding | no binding
B8 | no binding | no binding
B9 | no binding | no binding
B10 | no binding | no binding
B11 | no binding | no binding
B12 | no binding | no binding
B13 | no binding | no binding
